Drawing on PMC11619291, “Functional and structural analyses of IMP-27 metallo-β-lactamase: evolution of IMP-type enzymes to overcome Zn(II) deprivation” (Microbiology Spectrum, 2024), this text covers Km, kcat and kcat/Km for two substances.

The Km is the substrate concentration at which the rate is half of its maximum. One may read the kcat as the maximal rate divided by the concentration of active sites. Usually kcat/Km stands for the turnover number divided by the Michaelis constant.

Some results are limits rather than exact numbers.

What all share (assay): purified protein
Settings in all cases: no added Zn(II), 20 mM HEPES pH 7.5, 30°C

The test system of series [1] is CC1=C(C(=O)O)N2C(=O)[C@@H](NC(=O)[C@H](N)c3ccccc3)[C@H]2SC1.
Series [2] concerns CC1(C)S[C@@H]2[C@H](NC(=O)[C@H](N)c3ccccc3)C(=O)N2[C@H]1C(=O)O. It is filed as biochemical, Morganella morganii. The source says: (§1) steady-state hydrolysis, UV-VIS spectrophotometry on IMP-27
In series [3] the test system is C[C@@H](O)[C@H]1C(=O)N2C(C(=O)O)=C(S[C@@H]3CN[C@H](C(=O)N(C)C)C3)[C@H](C)[C@H]12. It is filed as biochemical, Morganella morganii.
From the text: as §1

The test system of series [4] is CC1(C)S[C@@H]2[C@H](NC(=O)Cc3ccccc3)C(=O)N2[C@H]1C(=O)O. The format is biochemical, Morganella morganii.
From the text: as §1

For series [5], the system named is CO/N=C(\C(=O)N[C@@H]1C(=O)N2C(C(=O)O)=C(COC(C)=O)CS[C@H]12)c1csc(N)n1. The format is biochemical, Morganella morganii.
From the text: as §1

For series [6], the system named is CC(C)(O/N=C(\C(=O)N[C@@H]1C(=O)N2C(C(=O)[O-])=C(C[n+]3ccccc3)CS[C@H]12)c1csc(N)n1)C(=O)O. It is filed as biochemical, Morganella morganii.
From the text: as §1

For series [7], the system named is CC(=O)OCC1=C(C(=O)O)N2C(=O)[C@@H](NC(=O)Cc3cccs3)[C@H]2SC1. The format is biochemical, Morganella morganii.
From the text: as §1

The subject of series [8] is CC1(C)S[C@@H]2[C@H](NC(=O)[C@H](N)c3ccccc3)C(=O)N2[C@H]1C(=O)O. The format is biochemical, Serratia marcescens. An excerpt:
(§2) steady-state hydrolysis, UV-VIS spectrophotometry on IMP-1

Series [9] relates to C[C@@H](O)[C@H]1C(=O)N2C(C(=O)O)=C(S[C@@H]3CN[C@H](C(=O)N(C)C)C3)[C@H](C)[C@H]12. The format is biochemical, Serratia marcescens.
From the text: as §2

Series [10] deals with CC1(C)S[C@@H]2[C@H](NC(=O)Cc3ccccc3)C(=O)N2[C@H]1C(=O)O. It is filed as biochemical, Serratia marcescens.
From the text: as §2

In series [11] the test system is CO/N=C(\C(=O)N[C@@H]1C(=O)N2C(C(=O)O)=C(COC(C)=O)CS[C@H]12)c1csc(N)n1. The format is biochemical, Serratia marcescens.
From the text: as §2

In series [12] the test system is C[C@@H](O)[C@H]1C(=O)N2C(C(=O)O)=C(SCCN=CN)C[C@H]12. It is filed as biochemical, Serratia marcescens.
From the text: as §2

Series [13] has as its system CC(C)(O/N=C(\C(=O)N[C@@H]1C(=O)N2C(C(=O)[O-])=C(C[n+]3ccccc3)CS[C@H]12)c1csc(N)n1)C(=O)O. The format is biochemical, Serratia marcescens.
From the text: as §2

Series [14] deals with CC(=O)OCC1=C(C(=O)O)N2C(=O)[C@@H](NC(=O)Cc3cccs3)[C@H]2SC1. It is filed as biochemical, Serratia marcescens.
From the text: as §2

IMP-27 (Morganella morganii): the Km in [1] came out at 5.47 ± 0.53 µM; in series [3], 4.21 ± 0.29 µM; in [4], 218 ± 28 µM; in series [5], 6.57 ± 0.96 µM; in series [6], 27.5 ± 3.4 µM; in [7], 9.23 ± 0.88 µM. For the same substance, the kcat in series [1] was 1.19 s⁻¹; in series [2], greater than 7.25 s⁻¹; in series [3], 6.79 ± 0.8 s⁻¹; in series [4], 20.3 ± 2.2 s⁻¹; in series [5] it was 50.7 ± 6.6 s⁻¹; in series [6] it was 2.02 ± 0.3 s⁻¹. Besides, the kcat in series [7] was found to be 290 ± 39 s⁻¹. The kcat/Km in [1] came out at 217000 M⁻¹ s⁻¹; in [2], 28800 M⁻¹ s⁻¹; in [3] it was 1.63e+06 M⁻¹ s⁻¹; in [4], 93200 M⁻¹ s⁻¹; in series [5], 7.72e+06 M⁻¹ s⁻¹; in series [6], 73200 M⁻¹ s⁻¹. Also, in series [7], the kcat/Km was 3.14e+07 M⁻¹ s⁻¹.
In the case of IMP-1 (Serratia marcescens), the Km in [1] was 18.5 ± 2.9 µM; in series [8] it was 41.8 ± 7.6 µM; in series [9], 83.3 ± 16.1 µM; in series [10], 144 ± 6 µM; in [11], 3.44 ± 0.12 µM; in series [12] it was 48.6 ± 10.2 µM. The Km in [13] worked out at 38.1 ± 1.6 µM; in series [14] it was 1.62 ± 0.21 µM. Also, the kcat in [1] stood at 75.1 s⁻¹; in [8], 37.6 ± 3.1 s⁻¹; in series [9] it was 25.1 ± 4.4 s⁻¹; in series [10], 367 ± 38 s⁻¹; in series [11] it was 26 ± 1.8 s⁻¹; in series [12], 87.6 ± 4.5 s⁻¹. Further, the figures for the kcat in [13] and in series [14] were 14.2 ± 0.8 s⁻¹ and 82.5 ± 5.9 s⁻¹, respectively. In addition, the kcat/Km in series [1] was 4.06e+06 M⁻¹ s⁻¹; in [8], 899000 M⁻¹ s⁻¹; in series [9] it was 301000 M⁻¹ s⁻¹; in [10], 2.56e+06 M⁻¹ s⁻¹; in series [11], 7.55e+06 M⁻¹ s⁻¹; in series [12] it was 1.88e+06 M⁻¹ s⁻¹. Besides, the kcat/Km in series [13] is 373000 M⁻¹ s⁻¹; in [14], 5.11e+07 M⁻¹ s⁻¹.
